Data set [1] deals with T1, ACE2 (Homo sapiens, UniProt Q9BYF1). As to the kind of experiment: SPR; recombinant human ACE2 (50 ug/mL) immobilised on a nanogold sensor chip activated with EDC/NHS; dilutions of peptide flowed at 20 uL/min for 7 min; Nicoya OpenSPR.
Target sequence in this assay (Q9BYF1 18-740): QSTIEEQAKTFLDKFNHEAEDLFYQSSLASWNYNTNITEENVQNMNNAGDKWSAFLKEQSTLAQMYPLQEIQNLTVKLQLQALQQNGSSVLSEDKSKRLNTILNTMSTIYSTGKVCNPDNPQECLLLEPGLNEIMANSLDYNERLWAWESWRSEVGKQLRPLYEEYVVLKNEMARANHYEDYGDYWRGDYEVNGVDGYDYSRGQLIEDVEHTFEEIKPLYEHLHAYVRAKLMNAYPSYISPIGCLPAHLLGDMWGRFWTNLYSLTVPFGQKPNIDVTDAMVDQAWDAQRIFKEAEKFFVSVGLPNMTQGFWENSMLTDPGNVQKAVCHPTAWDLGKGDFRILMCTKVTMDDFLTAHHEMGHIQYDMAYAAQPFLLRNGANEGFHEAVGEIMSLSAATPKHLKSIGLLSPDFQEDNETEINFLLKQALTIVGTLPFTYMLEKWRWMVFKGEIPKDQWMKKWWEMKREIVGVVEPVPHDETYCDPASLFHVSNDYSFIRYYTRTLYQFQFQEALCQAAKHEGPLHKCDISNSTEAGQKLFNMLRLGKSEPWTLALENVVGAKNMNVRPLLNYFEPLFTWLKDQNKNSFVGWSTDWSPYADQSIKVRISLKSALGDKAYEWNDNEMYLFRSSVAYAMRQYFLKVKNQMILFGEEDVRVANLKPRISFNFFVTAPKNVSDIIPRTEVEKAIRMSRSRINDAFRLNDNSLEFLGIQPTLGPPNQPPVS
Data set [2] is classed as physicochemical. As to conditions: 0.01 M PBS, 37 °C, 50 µL tracer in 450 µL PBS, sampled at 1, 2, 4 h; stated within 2 h. As to the method: The solution was analyzed by radio‐HPLC to assess the radiochemical purity. The HPLC was eluted with water‐CH3CN system (Phase A: 0.1% TFA H2O; Phase B: 0.1% TFA CH3CN) using gradient elution (0–5 min 20% B; 5–10 min 20%–80% B; 10–12 min 80% B; 12–15 min 80%–20% B) at a flow rate of 1.0 mL min^−1. The radiolabeling yield was 59.9 ± 3.9% (non‐decay corrected, n = 10) and the radiochemical purity was over 95%. […] At 1, 2, and 4 h time points, 10 µL aliquot was analyzed by radio‐HPLC to assess the radiochemical purity.
Supplemental Figure 2. […] (A) Saturation binding assay […]
assay of DX600. (C) hACE2 expression specifically determine the accumulation of 64Cu-HZ20 over HEK293-hACE2 and HEK293-WT cells for 2 h incubation at 37 °C. (D) Stability analysis

The next data set is described as follows: clinical. As to conditions: human, in vivo, iv, total radioactivity.
The target of data set [3] is T1, ACE2. As to conditions: in vivo.
Target sequence in this assay (Q9BYF1 18-805): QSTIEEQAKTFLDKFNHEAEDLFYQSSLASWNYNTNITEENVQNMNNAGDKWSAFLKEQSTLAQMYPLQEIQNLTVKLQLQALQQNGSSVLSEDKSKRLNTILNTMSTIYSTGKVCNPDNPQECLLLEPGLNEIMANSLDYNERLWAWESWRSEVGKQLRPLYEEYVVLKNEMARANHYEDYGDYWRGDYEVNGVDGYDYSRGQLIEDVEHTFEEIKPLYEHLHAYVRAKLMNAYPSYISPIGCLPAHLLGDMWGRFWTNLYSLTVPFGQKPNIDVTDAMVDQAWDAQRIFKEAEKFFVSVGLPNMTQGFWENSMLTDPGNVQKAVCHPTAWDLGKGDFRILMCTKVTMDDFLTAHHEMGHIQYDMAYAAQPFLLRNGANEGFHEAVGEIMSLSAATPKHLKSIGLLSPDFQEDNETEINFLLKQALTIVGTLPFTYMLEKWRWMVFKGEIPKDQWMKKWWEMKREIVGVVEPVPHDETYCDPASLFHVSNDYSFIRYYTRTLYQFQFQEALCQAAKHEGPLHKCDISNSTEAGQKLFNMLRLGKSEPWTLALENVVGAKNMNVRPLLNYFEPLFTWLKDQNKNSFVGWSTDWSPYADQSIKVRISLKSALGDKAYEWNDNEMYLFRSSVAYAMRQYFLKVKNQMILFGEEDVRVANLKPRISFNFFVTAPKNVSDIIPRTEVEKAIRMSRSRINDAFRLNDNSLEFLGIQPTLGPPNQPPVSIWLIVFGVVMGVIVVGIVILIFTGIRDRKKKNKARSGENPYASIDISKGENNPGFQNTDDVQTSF
A short description of a further data set: in vivo. As to conditions: female, athymic nude, mouse, HepG2 xenograft tumor, iv, 3.7 MBq, total radioactivity.
In data set [4] the target is T1, ACE2. As to conditions: PET/MR 2 h after injection, female volunteers #005 and #012.
Target sequence in this assay (Q9BYF1 18-805): as above
The target in data set [5] is T1, ACE2. Put plainly: biochemical.
Target sequence in this assay (Q9BYF1 18-805): as above
Experimental: Briefly, recombinant human ACE2 protein (50 µg mL^−1; BP003061) was immobilized on the surface of the nanogold sensor chip, after the chip was activated by 1‐ethyl‐3‐(3‐dimethylaminopropyl)carbodiimide/N‐hydroxysuccinimide. […] K D, ka and kd were calculated using Trace Drawer Evaluation version 2.0 (Trace Software International, Saint‐Romain, France).
Data set [6] is classed as in vivo, mice. On the procedure: Supplemental Figure 5. Body weight monitoring following DX600 exposure was conducted in mice for 25 days. The experiment was carried out in 10 mice at 4-weeks of age. The mice were either […]
was repeated on day 0, day 4, day 11, day 18 and day 25, and the weight of the mice was […]
group (n = 5, weight from 26.5 ± 5.2 g to 41.2 ± 3.1 g) and the control group (n = 5, weight from […]

Data set [7] concerns ACE2. To be noted: cited from earlier work.

The text below walks through data of publication PMC8373167 (Advanced Science, 2021).

Experimental for in vivo: 5 × 10^6 of HepG2 cells were inoculated into the right front shoulder region of the mice to build the xenograft tumor model with ACE2 expression. When the tumor volumes were estimated to be 450–800 mm^3, the mice were used for the studies. […] Scans were performed at 60, 120, and 180 min after administration. […] Subsequently, animals were scanned at 60, 120, and 180 min post‐injection. Regions of interest were defined over tumor, heart, liver, lung, kidney, and muscle and uptake computed relative to the injected activity.
Tumor, heart, liver, lung, kidney and muscle were selected for analysis.

Consider DX600 (peptide), for which, in the data set with ACE2 [1], the dissociation constant (Kd) was determined as 98.7 nM.

Take `CC(C)C[C@@H]1NC(=O)[C@@H]2CCCN2C(=O)[C@H](CO)NC(=O)[C@@H](NC(=O)[C@H](Cc2c[nH]cn2)NC(=O)[C@H](CO)NC(=O)[C@H](Cc2ccc(O)cc2)NC(=O)[C@H](CC(=O)O)NC(=O)CNC(=O)CN2CCN(CC(=O)O)CCN(CC(=O)O)CCN(CC(=O)O)CC2)CSSC[C@@H](C(=O)N[C@H](C(=O)N[C@@H](Cc2ccc(O)cc2)C(=O)N2CCC[C@H]2C(=O)N[C@@H](CC(=O)O)C(=O)N2CCC[C@H]2C(=O)N[C@@H](CCC(=O)O)C(=O)NCC(=O)NCC(=O)NCC(N)=O)[C@@H](C)O)NC(=O)[C@H](CCCCN)NC(=O)[C@H](Cc2c[nH]c3ccccc23)NC(=O)[C@H](Cc2c[nH]c3ccccc23)NC(=O)[C@@H]2CCCN2C(=O)[C@H](Cc2ccc(O)cc2)NC(=O)[C@H](Cc2ccc(O)cc2)NC(=O)[C@H](CCCNC(=N)N)NC1=O` [^68Ga‐HZ20, metal not drawn]: in data set [2], the “in vitro stability (radiochemical purity by radio-HPLC)” value is given as “stable”. Moreover, the SUV at 1.5 h turned out to be 1.78 ± 0.17 SUV in “clinical” (female, SUVmax breast); 1.35 ± 0.22 SUV in “clinical” (female, SUVmax breast, old group); 2.21 ± 0.25 SUV in “clinical” (female, SUVmax breast, young group); 2.76 SUV in the data set “clinical” (female, SUVmax gallbladder); 2.12 ± 1.42 SUV in “clinical” (female, SUVmax ovary); 38.8 SUV in “clinical” (female, SUVmax renal cortex). Further, the SUV at 1.5 h worked out at 2.41 ± 0.34 SUV in “clinical” (female, SUVmax uterus); 1.71 ± 0.08 SUV in “clinical” (SUVmax conjunctiva); 1.63 ± 0.11 SUV in “clinical” (SUVmax esophagus); 1.59 ± 0.14 SUV in the data set “clinical” (SUVmax liver); 1.91 ± 0.18 SUV in “clinical” (SUVmax nasal); 1.63 ± 0.24 SUV in “clinical” (SUVmax pancreas). The SUV at 1.5 h in the data set “clinical” (SUVmax rectum) was found to be 1.46 ± 0.13 SUV; in the data set “clinical” (SUVmax renal cortex (right kidney in Figure 7)), 25.7 ± 1.39 SUV; in “clinical” (SUVmax renal cortex, left kidney), 22.2 ± 1.78 SUV; in the data set “clinical” (SUVmax renal cortex, right kidney, person recovered from COVID-19, 7 months post infection, 90 min), 18.4 SUV; in “clinical” (SUVmax renal medulla), 18.3 ± 1.42 SUV; in the data set “clinical” (male, SUVmax gallbladder) it was 0.75 SUV. The SUV at 1.5 h in “clinical” (male, SUVmax gallbladder, male recovered from COVID-19, 90 min) turned out to be 4.32 SUV; in “clinical” (male, SUVmax left testis) it was 4.58 ± 0.4 SUV; in the data set “clinical” (male, SUVmax left testis, male recovered from COVID-19, 90 min), 8.65 SUV; in “clinical” (male, SUVmax penis), 2 ± 0.25 SUV; in “clinical” (male, SUVmax renal cortex), 23.9 SUV; in the data set “clinical” (male, SUVmax renal cortex, left kidney, male recovered from COVID-19, 90 min), 11.6 SUV. The SUV at 1.5 h was found to be 4.51 ± 0.54 SUV in “clinical” (male, SUVmax right testis); 8.79 SUV in “clinical” (male, SUVmax right testis, male recovered from COVID-19, 90 min); 0.48 SUV in “clinical” (male, SUVmax small intestine); 4.46 ± 0.3 SUV in the data set “clinical” (male, SUVmax testis). Moreover, the SUV in the data set “clinical” (female, SUVmax corpus luteum) was found to be 7.35 SUV. Besides, the SUVmax breast in the data set with ACE2 [3] is listed as 2.72. This molecule showed an SUVmax testis with ACE2 [3] of 5.57. In the data set with ACE2 [3], the blood-brain barrier penetration result is “poor”. Besides, in “in vivo”, the SUV at 2 h stood at 0.099 ± 0.0065 SUV. The tissue uptake per volume at 2 h in the data set “in vivo” amounted to 0.56 %ID/mL. In the data set with ACE2 [4], the “uptake in immature follicles” value is “no uptake”. The “uptake in stroma of ovary” value in the data set with ACE2 [4] was “slight uptake”.

As to DOTA-DX600 (peptide), the dissociation constant Kd with ACE2 [1] is 100 nM.

As for `CC(C)C[C@@H]1NC(=O)[C@@H]2CCCN2C(=O)[C@H](CO)NC(=O)[C@@H](NC(=O)[C@H](Cc2c[nH]cn2)NC(=O)[C@H](CO)NC(=O)[C@H](Cc2ccc(O)cc2)NC(=O)[C@H](CC(=O)O)NC(=O)CNC(=O)CN2CCN(CC(=O)O)CCN(CC(=O)O)CCN(CC(=O)O)CC2)CSSC[C@@H](C(=O)N[C@H](C(=O)N[C@@H](Cc2ccc(O)cc2)C(=O)N2CCC[C@H]2C(=O)N[C@@H](CC(=O)O)C(=O)N2CCC[C@H]2C(=O)N[C@@H](CCC(=O)O)C(=O)NCC(=O)NCC(=O)NCC(N)=O)[C@@H](C)O)NC(=O)[C@H](CCCCN)NC(=O)[C@H](Cc2c[nH]c3ccccc23)NC(=O)[C@H](Cc2c[nH]c3ccccc23)NC(=O)[C@@H]2CCCN2C(=O)[C@H](Cc2ccc(O)cc2)NC(=O)[C@H](Cc2ccc(O)cc2)NC(=O)[C@H](CCCNC(=N)N)NC1=O` [HZ20], on ACE2 [5], the Kd amounted to 100 nM.

As for `CC(=O)NCC(=O)N[C@@H](CC(=O)O)C(=O)N[C@@H](Cc1ccc(O)cc1)C(=O)N[C@@H](CO)C(=O)N[C@@H](Cc1cnc[nH]1)C(=O)N[C@H]1CSSC[C@@H](C(=O)N[C@H](C(=O)N[C@@H](Cc2ccc(O)cc2)C(=O)N2CCC[C@H]2C(=O)N[C@@H](CC(=O)O)C(=O)N2CCC[C@H]2C(=O)N[C@@H](CCC(=O)O)C(=O)NCC(=O)NCC(=O)NCC(N)=O)[C@@H](C)O)NC(=O)[C@H](CCCCN)NC(=O)[C@H](Cc2c[nH]c3ccccc23)NC(=O)[C@H](Cc2c[nH]c3ccccc23)NC(=O)[C@@H]2CCCN2C(=O)[C@H](Cc2ccc(O)cc2)NC(=O)[C@H](Cc2ccc(O)cc2)NC(=O)[C@H](CCCNC(=N)N)NC(=O)[C@H](CC(C)C)NC(=O)[C@@H]2CCCN2C(=O)[C@H](CO)NC1=O` [DX600], the “body weight at start” value in [6] (mice 4 weeks old, n = 5, injections day 0, 4, 11, 18, 25) turned out to be 26.5 ± 5.2 g. Moreover, the “body weight at end” value in [6] (mice, n = 5, 25 days, injections day 0, 4, 11, 18, 25) worked out at 41.2 ± 3.1 g. In addition, the “body weight versus saline control group” value in [6] (mice, n = 5 per group, 25 days) is “no significant difference”. In the data set with ACE2 [7], the “stability to ACE2 catalyzed hydrolysis” value is recorded as “stable”.
